# Columns and labels:
# [1] = Pharmacokinetics of hGH and hGH/alpha-1 antitrypsin fusions (serum ELISA); assay type: in vivo; conditions: Sprague-Dawley rats, subcutaneous, 720 μg/kg
# Procedure: An anti-human growth hormone monoclonal antibody (Medix Biochemica, Finland) was diluted to a concentration of 1-5 μg/mL in phosphate buffered saline (PBS) and the dilution was aliquoted in an amount of 100 μL/well onto a 96-well plate (Nunc, Denmark) and incubated at room temperature for 15-18 hrs. After the antibody remaining suspended was removed, PBS containing 1% bovine serum albumin was plated in an amount of 250 μL/well and incubated at room temperature for 2 hours. The plates were washed three times with wash buffer (0.05% Tween 20, PBS) and the solution was aspirated. Samples were diluted in PBS containing 1% bovine serum albumin and added to the 96-well plates before incubation at room temperature for 2 hrs. The 96-well plates were washed five times with wash buffer and 100 μL of the human growth hormone monoclonal antibody-biotin conjugate prepared using sulfo-NHS-biotin (Pierce biotechnology, U.S.A.) was added to each well of the 96-well plates and then incubated at room temperature for 2 hrs. The plates were washed five times with wash buffer and incubated with streptabidin-HRP at room temperature for 30 min. Again, the plates were washed five times with wash buffer and reacted with 100 μL of a mixture of TMB (3,3′,5,5′-tetramethylbenzidine) and hydrogen peroxide per well for 30 min in a dark place. To each well was added 100 μL of 1 M sulfuric acid to terminate the reaction, followed by measuring absorbance at 450 nm on a VersaMax microplate reader (Molecular Device, U.S.A.). Values for each sample were calculated by regression analysis after a standard curve was plotted for a reference material.
# Sprague-Dawley rats were used as experimental animals and three of them were administered with human growth hormone while five rats were assigned to each of the fusion-administered groups. The human growth hormone/alpha-1 antitrypsin fusion [T109wt: α1AT/hGH], the human growth hormone/alpha-1 antitrypsin monovariant fusion [T109: α1AT(P357N)/hGH], and the human growth hormone/alpha-1 antitrypsin divariant fusion [T109T: α1AT(P357N, S359T)/hGH], all prepared in Examples 1-3, were subcutaneously injected at a dose of 720 μg/kg into respective groups of Sprague-Dawley rats. The samples were diluted in PBS before injection. Blood samples were taken at 0, 1, 2, 4, 8, 12, 16, 24, 30 and 48 hrs after the injection, and centrifuged to obtain sera. For a control, Scitropin (SciGen, Singapore), a kind of human growth hormone, was subcutaneously injected at a dose of 200 μg/kg. PBS was used as a diluent. Blood samples were taken at 0, 0.33, 1, 2, 5, 8, 12, 18, 24, 30 and 48 hrs after the injection, and centrifuged to obtain sera. Each sample was analyzed in the same manner as the enzyme immunoassay of Test Example 1.
# [2] = tested on: rat lymphoma cell line (NB2 cell); assay: In vitro activity in NB2 cells (MTS method); assay type: cell-based; conditions: 48 hrs
# Procedure: The rat lymphoma cell line (NB2 cell) was maintained in RPMI1640 supplemented with 10% HS (Horse serum), 10% FBS, 2-mercaptoethanol and antibiotics at 37° C. under a 5% CO2 condition. For 24 hrs before experiment, NB2 cells were incubated in RPMI 1640 supplemented with 10% HS. Thereafter, the NB2 cells were washed once with 1×DPBS (Dulbecco's Phosphate Buffered Saline), and plated at a density of 2×10^4 cells/100 μL/well in 5% HS-supplemented RPMI 1640 in 96-well plates (Corning, U.S.A.) with final volume of 100 μL. A series of concentrations of the samples were added in an amount of 20 μL to each well of the 96-well plates, followed by incubation at 37° C. for 48 hrs under a 5% CO2 condition. Subsequently, 20 μL of an MTS solution (Promega, U.S.A.) was added to each well of the 96-well plates and allowed to react at 37° C. for 3 hrs under a 5% CO2 condition. The reaction was terminated by adding 20 μL of 10% SDS (sodium dodecyl sulfate) to each well. Absorbance was measured at 490 nm using a VersaMax microplate reader (Molecular Device, U.S.A.).
# trypsin = target: T1, trypsin (Bos taurus, UniProt P00760); assay: Inhibitory activity against trypsin; assay type: biochemical; conditions: trypsin and fusion 10 nM each, 1 hr room temperature
# T1 construct: gene PRSS1
# T1 sequence (P00760 24-246): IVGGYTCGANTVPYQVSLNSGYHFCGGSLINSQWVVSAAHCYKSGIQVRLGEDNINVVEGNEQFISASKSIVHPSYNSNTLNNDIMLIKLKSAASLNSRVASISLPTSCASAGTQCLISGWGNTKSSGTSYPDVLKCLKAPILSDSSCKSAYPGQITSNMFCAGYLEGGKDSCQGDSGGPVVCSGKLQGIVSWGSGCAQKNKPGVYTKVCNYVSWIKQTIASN
# Procedure: (§1) The human growth hormone/alpha-1 antitrypsin fusion [T109wt: α1AT/hGH] prepared in Example 1 and the human growth hormone/alpha-1 antitrypsin monovariant fusion [T109: α1AT(P357N)/hGH] prepared in Example 1 were separately mixed with trypsin. Trypsin and the fusions were used at a concentration of 10 nM, respectively. After being incubated at room temperature for 1 hr, the mixture was reacted with 0.2 mM of the substrate N-Benzoyl-Val-Gly-Arg p-nitroanilide hydrochloride (Sigma, U.S.A.), followed by measuring absorbance at 405 nm. Trypsin unit was set to be the concentration of substrate causing a change in absorbance of 0.001 and the enzyme activity was expressed as units/mg trypsin. For comparison, trypsin was used as a control.
# [3] = target: T2, human neutrophil elastase (Homo sapiens, UniProt P08246); assay: Inhibitory activity against human neutrophil elastase; assay type: biochemical; conditions: elastase and fusion 40 nM each, 1 hr room temperature
# T2 sequence (P08246 30-267): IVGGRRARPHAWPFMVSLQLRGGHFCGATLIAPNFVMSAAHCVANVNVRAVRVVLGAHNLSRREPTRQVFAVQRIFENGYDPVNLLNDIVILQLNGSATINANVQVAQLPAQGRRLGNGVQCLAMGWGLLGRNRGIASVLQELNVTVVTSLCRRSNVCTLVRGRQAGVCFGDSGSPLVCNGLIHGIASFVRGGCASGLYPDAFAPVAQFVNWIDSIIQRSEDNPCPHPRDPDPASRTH
# Procedure: as §1, with “with human neutrophil elastase. The elastase” for “with trypsin. Trypsin”, “of 40” for “of 10”, “with 1” for “with 0.2”, “substrate MeOSuc-AAPV-pNA (Santa Cruz Biotechnology, Inc.,” for “substrate N-Benzoyl-Val-Gly-Arg p-nitroanilide hydrochloride (Sigma,”, “nm. Human neutrophil elastase” for “nm. Trypsin”, “units/mg elastase.” for “units/mg trypsin. For comparison, trypsin was used as a control.”
substance,measurement,setting,value
human growth hormone/alpha-1 antitrypsin fusion [T109wt],serum half-life (t1/2),[1],5.3 h
same,time to peak serum concentration (Tmax),[1],8 h
same,EC50,[2],0.212 nM
same,Ka (association equilibrium constant) with trypsin,trypsin,about 7.5×10^8 M^−1
same,inhibition of human neutrophil elastase,[3],~100%

# Source: patent US9012606B2, “In vivo half life increased fusion protein or peptide maintained by sustained in vivo release, and method for increasng in vivo half-life using same” (Alteogen, Inc., priority 2009, dated 2015)
